From paper PMC6886295, “The iron–sulfur‐containing HypC‐HypD scaffold complex of the [NiFe]‐hydrogenase maturation machinery is an ATPase” (FEBS Open Bio, 2019)

What was measured:
[1] = target: T1, HypD (Escherichia coli, UniProt P24192, C41A); assay: HPLC (ZIC-HILIC) ADP formation, specific activity; type: biochemical; settings: 50 mM HEPES, 2 mM MgCl2, pH 7.4, 37 °C, 500 μM ATP; protein alone
T1 construct: Strep-tagged HypD (plasmid pIBA5hypDWT), [4Fe-4S] protein, overproduced and anaerobically purified from E. coli BEF314 (delta hypB-E)

[2] = substrate: Nc1ncnc2c1ncn2[C@@H]1O[C@H](COP(=O)(O)OP(=O)(O)OP(=O)(O)O)[C@@H](O)[C@H]1O; assay: HPLC (ZIC-HILIC) ADP formation, Michaelis-Menten fit; type: biochemical, Escherichia coli; settings: 50 mM HEPES, 2 mM MgCl2, pH 7.4, 37 °C, protein alone
Excerpt: HPLC (ZIC-HILIC) ADP formation, Michaelis-Menten fit on HypC

[3] = substrate: Nc1ncnc2c1ncn2[C@@H]1O[C@H](COP(=O)(O)OP(=O)(O)OP(=O)(O)O)[C@@H](O)[C@H]1O; assay: as above; type: biochemical, Escherichia coli; settings: 50 mM HEPES, 2 mM MgCl2, pH 7.4, 37 °C, protein alone; remark: listed apart in the source
Excerpt: HPLC (ZIC-HILIC) ADP formation, Michaelis-Menten fit on HypD

[4] = substrate: Nc1ncnc2c1ncn2[C@@H]1O[C@H](COP(=O)(O)OP(=O)(O)OP(=O)(O)O)[C@@H](O)[C@H]1O; assay: as above; type: biochemical, Escherichia coli; settings: 50 mM HEPES, 2 mM MgCl2, pH 7.4, 37 °C, protein alone; remark: listed apart in the source
Excerpt: HPLC (ZIC-HILIC) ADP formation, Michaelis-Menten fit on HybG

[5] = substrate: Nc1ncnc2c1ncn2[C@@H]1O[C@H](COP(=O)(O)OP(=O)(O)OP(=O)(O)O)[C@@H](O)[C@H]1O; assay: as above; type: biochemical, Escherichia coli; settings: 50 mM HEPES, 2 mM MgCl2, pH 7.4, 37 °C, as-isolated complex
Excerpt: HPLC (ZIC-HILIC) ADP formation, Michaelis-Menten fit on HypC-HypD complex

[6] = substrate: Nc1ncnc2c1ncn2[C@@H]1O[C@H](COP(=O)(O)OP(=O)(O)OP(=O)(O)O)[C@@H](O)[C@H]1O; assay: as above; type: biochemical, Escherichia coli; settings: 50 mM HEPES, 2 mM MgCl2, pH 7.4, 37 °C, as-isolated complex; remark: listed apart in the source
Excerpt: HPLC (ZIC-HILIC) ADP formation, Michaelis-Menten fit on HybG-HypD complex

T1 sequence (P24192 whole entry C41A): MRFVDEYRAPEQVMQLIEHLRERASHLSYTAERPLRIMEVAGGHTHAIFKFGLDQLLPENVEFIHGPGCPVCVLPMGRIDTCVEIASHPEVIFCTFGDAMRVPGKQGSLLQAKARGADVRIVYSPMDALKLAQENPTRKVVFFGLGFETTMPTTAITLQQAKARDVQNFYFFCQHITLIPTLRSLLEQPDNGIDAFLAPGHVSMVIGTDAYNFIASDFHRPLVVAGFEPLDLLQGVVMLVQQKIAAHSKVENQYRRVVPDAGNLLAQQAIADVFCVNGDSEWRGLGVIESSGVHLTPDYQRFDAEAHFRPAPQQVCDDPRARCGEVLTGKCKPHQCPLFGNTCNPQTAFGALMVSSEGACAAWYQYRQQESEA

Molecule: Nc1ncnc2c1ncn2[C@@H]1O[C@H](COP(=O)(O)OP(=O)(O)OP(=O)(O)O)[C@@H](O)[C@H]1O [ATP]
- HPLC (ZIC-HILIC) ADP formation, specific activity [1]: The HypDC41A variant on its own had an ATPase activity

B1: HypC (Escherichia coli K-12) (protein)
chain: CIGVPGQIRTIDGNQAKVDVCGIQRDVDLTLVGSCDENGQPRVGQWVLVHVGFAMSVINEAEARDTLDALQNMFDVEPDVGALLYGEEK
notes: Strep-tagged HypC (plasmid pIBA3hypCStrep), anaerobically purified from E. coli BEF314 (delta hypB-E)
- Km [2]: 235.72 ± 71.15 µM
- Vmax [2]: 0.234 µmol/min/mg

B2: HypD (Escherichia coli K-12) (protein)
chain: MRFVDEYRAPEQVMQLIEHLRERASHLSYTAERPLRIMEVCGGHTHAIFKFGLDQLLPENVEFIHGPGCPVCVLPMGRIDTCVEIASHPEVIFCTFGDAMRVPGKQGSLLQAKARGADVRIVYSPMDALKLAQENPTRKVVFFGLGFETTMPTTAITLQQAKARDVQNFYFFCQHITLIPTLRSLLEQPDNGIDAFLAPGHVSMVIGTDAYNFIASDFHRPLVVAGFEPLDLLQGVVMLVQQKIAAHSKVENQYRRVVPDAGNLLAQQAIADVFCVNGDSEWRGLGVIESSGVHLTPDYQRFDAEAHFRPAPQQVCDDPRARCGEVLTGKCKPHQCPLFGNTCNPQTAFGALMVSSEGACAAWYQYRQQESEA
notes: Strep-tagged HypD (plasmid pIBA5hypDWT), [4Fe-4S] protein, overproduced and anaerobically purified from E. coli BEF314 (delta hypB-E)
- Km [3]: 364.48 ± 100.16 µM
- Vmax [3]: 0.398 µmol/min/mg

B3: HybG (Escherichia coli K-12) (protein)
chain: MCIGVPGQVLAVGEDIHQLAQVEVCGIKRDVNIALICEGNPADLLGQWVLVHVGFAMSIIDEDEAKATLDALRQMDYDITSA
notes: Strep-tagged HybG (plasmid pIBA3hybGWT), anaerobically purified from E. coli BEF314 (delta hypB-E)
- Km [4]: 475.67 ± 29.91 µM
- Vmax [4]: 0.56 µmol/min/mg

B4: HypC-HypD complex (Escherichia coli K-12) (protein)
chain 1: MRFVDEYRAPEQVMQLIEHLRERASHLSYTAERPLRIMEVCGGHTHAIFKFGLDQLLPENVEFIHGPGCPVCVLPMGRIDTCVEIASHPEVIFCTFGDAMRVPGKQGSLLQAKARGADVRIVYSPMDALKLAQENPTRKVVFFGLGFETTMPTTAITLQQAKARDVQNFYFFCQHITLIPTLRSLLEQPDNGIDAFLAPGHVSMVIGTDAYNFIASDFHRPLVVAGFEPLDLLQGVVMLVQQKIAAHSKVENQYRRVVPDAGNLLAQQAIADVFCVNGDSEWRGLGVIESSGVHLTPDYQRFDAEAHFRPAPQQVCDDPRARCGEVLTGKCKPHQCPLFGNTCNPQTAFGALMVSSEGACAAWYQYRQQESEA
chain 2: CIGVPGQIRTIDGNQAKVDVCGIQRDVDLTLVGSCDENGQPRVGQWVLVHVGFAMSVINEAEARDTLDALQNMFDVEPDVGALLYGEEK
notes: heterodimer, HypC Strep-tagged (pT7-7hypD-hypCStrep), anaerobically co-purified from E. coli MC4100 or BEF314
- Km [5]: 143.48 ± 55.10 µM
- Vmax [5]: 0.995 µmol/min/mg

B5: HybG-HypD complex (Escherichia coli K-12) (protein)
chain 1: MRFVDEYRAPEQVMQLIEHLRERASHLSYTAERPLRIMEVCGGHTHAIFKFGLDQLLPENVEFIHGPGCPVCVLPMGRIDTCVEIASHPEVIFCTFGDAMRVPGKQGSLLQAKARGADVRIVYSPMDALKLAQENPTRKVVFFGLGFETTMPTTAITLQQAKARDVQNFYFFCQHITLIPTLRSLLEQPDNGIDAFLAPGHVSMVIGTDAYNFIASDFHRPLVVAGFEPLDLLQGVVMLVQQKIAAHSKVENQYRRVVPDAGNLLAQQAIADVFCVNGDSEWRGLGVIESSGVHLTPDYQRFDAEAHFRPAPQQVCDDPRARCGEVLTGKCKPHQCPLFGNTCNPQTAFGALMVSSEGACAAWYQYRQQESEA
chain 2: MCIGVPGQVLAVGEDIHQLAQVEVCGIKRDVNIALICEGNPADLLGQWVLVHVGFAMSIIDEDEAKATLDALRQMDYDITSA
notes: heterodimer, HybG Strep-tagged (hypDEFhybGStrep plasmid), anaerobically co-purified from E. coli MC4100; small amounts of HypE occasionally co-purify
- Km [6]: 34.78 ± 8.77 µM
- Vmax [6]: 1.42 µmol/min/mg
